Data published in publication doi:10.1101/2025.07.28.667101.

Biological target: poly-C3-GFOGMR (disulfide-linked polymer of the triple-helical peptide C3-GFOGMR)
Experiment: ELISA

Substance: GST-α2I domain E318W mutant (from UniProt P17301 169-366) (domain or fragment)
- affinity relative to the T221A mutant: 0.0033 fold
